Measured values from patent US20020102262A1, “Collagen binding protein compositions and methods of use” (priority 1996, published 2002).

These molecules were tested against immobilized type II Col (Homo sapiens, UniProt P02458) (assay: BIAcore analysis of CBD(30-529) and mutants on immobilized type II Col). Details: not given.
Type: binding
From the text: The importance of amino acid residues Asn^232 and Tyr ^33 in the MSCRAMM for Col binding was examined by creating specific mutants of CBD (30-529) and characterizing the interactions of these mutants with immobilized type II Col using the BlAcore. In the mutations made, the identified amino acid residues were replaced individually, (N^232 →A, Y^233 →A) or as a pair, (N^232 →A:Y^233→A) with alanine, a residue that is not expected to interfere with the existing secondary structure. The corresponding base changes were made using overlap extension PCR™ as described and the sequence changes confirmed experimentally. The recombinant proteins containing the mutations were purified to homogeneity by metal ion chelating chromatography.
True equilibrium was not obtained during the injection time period due to the slow dissociation rate (koff). […] The dissociation phase gives information about the koff, and this rate is independent of the number of binding sites, analyte concentration, and flow rate. […] The association phase contains the information to determine the association rate koff the interaction, but it is also influenced by the dissociation rate, the number of binding sites for each interaction, and the concentration of the analyte. Because of the complexity of this interaction and the absence of measurable equilibrium data, it was not possible to determine the binding constant (KD), apparent binding ratio (BRapp), and kon.

Chain of immobilized type II Col (P02458 182-1241 limits assumed): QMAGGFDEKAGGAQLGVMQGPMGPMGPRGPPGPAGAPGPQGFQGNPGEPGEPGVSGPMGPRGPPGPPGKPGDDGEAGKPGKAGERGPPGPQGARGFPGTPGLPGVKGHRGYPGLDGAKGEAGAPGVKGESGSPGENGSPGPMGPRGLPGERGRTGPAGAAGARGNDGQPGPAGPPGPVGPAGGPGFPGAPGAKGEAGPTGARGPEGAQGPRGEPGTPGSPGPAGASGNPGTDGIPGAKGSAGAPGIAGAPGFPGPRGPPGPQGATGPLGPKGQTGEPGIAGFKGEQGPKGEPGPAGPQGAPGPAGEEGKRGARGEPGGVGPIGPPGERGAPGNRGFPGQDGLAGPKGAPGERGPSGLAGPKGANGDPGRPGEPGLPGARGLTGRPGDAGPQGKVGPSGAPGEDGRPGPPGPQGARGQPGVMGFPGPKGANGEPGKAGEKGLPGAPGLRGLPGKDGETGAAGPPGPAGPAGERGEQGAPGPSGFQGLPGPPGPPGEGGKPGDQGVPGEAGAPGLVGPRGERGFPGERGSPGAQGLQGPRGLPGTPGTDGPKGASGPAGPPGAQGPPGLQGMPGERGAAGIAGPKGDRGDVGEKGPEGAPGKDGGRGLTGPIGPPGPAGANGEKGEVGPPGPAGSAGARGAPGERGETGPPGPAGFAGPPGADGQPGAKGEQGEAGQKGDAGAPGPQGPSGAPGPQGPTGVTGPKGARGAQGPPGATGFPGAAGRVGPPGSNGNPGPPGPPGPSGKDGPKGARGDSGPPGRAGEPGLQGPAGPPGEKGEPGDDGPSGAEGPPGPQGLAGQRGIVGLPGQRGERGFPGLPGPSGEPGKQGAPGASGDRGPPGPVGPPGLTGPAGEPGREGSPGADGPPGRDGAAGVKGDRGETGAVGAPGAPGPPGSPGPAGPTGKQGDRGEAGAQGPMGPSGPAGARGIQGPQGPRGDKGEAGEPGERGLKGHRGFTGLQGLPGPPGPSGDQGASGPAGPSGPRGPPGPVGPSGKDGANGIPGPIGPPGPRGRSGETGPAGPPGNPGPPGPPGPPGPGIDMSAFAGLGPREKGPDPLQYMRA

Molecule	affinity and apparent binding ratio compared to wild type
Y^233→A (protein) ARDISSTNVTDLTVSPSKIEDGGKTTVKMTFDDKNGKIQNGDMIKVAWPTSGTVKIEGYSKTVPLTVKGEQVGQAVITPDGATITFNDKVEKLSDVSGFAEFEVQGRNLTQTNTSDDKVATITSGNKSTNVTVHKSEAGTSSVFYYKTGDMLPEDTTHVRWFLNINNEKSYVSKDITIKDQIQGGQQLDLSTLNINVTGTHSNAYSGQSAITDFEKAFPGSKITVDNTKNTIDVTIPQGYGSYNSFSINYKTKITNEQQKEFVNNSQAWYQEHGKEEVNGKSFNHTVHNINANAGIEGTVKGELKVLKQDKDTKAPIANVKFKLSKKDGSVVKDNQKEIEIITDANGIANIKALPSGDYILKEIEAPRPYTFDKDKEYPFTMKDTDNQGYFTTIENAKAIEKTKDVSAQKVWEGTQKVKPTIYFKLYKQDDNQNTTPVDKAEIKKLEDGTTKVTWSNLPENDKNGKAIKYLVKEVNAQGEDTTPEGYTKKENGLVVTNTE	even more significant decreasesin affinity and apparent binding ratio

What follows are molecules tested on S. aureus strain Phillips (assay: Mouse sepsis model, active immunization, intravenous challenge with S. aureus expressing CBP). Details: 100μg/mouse on days -31, -18, -7; 2.8×10^7 cfu/mouse i.v. day 0; end day 14.
Type: in vivo, mice
From the text: Gram-positive bacteria related sepsis is on the increase. In fact between one-third and one-half of all cases of sepsis are caused by gram-positive bacteria, particularly S. aureus and S. epidermidis. In the United States, it can be estimated that over 200,000 patients will develop gram-positive related sepsis this year. […] Mice were immunized subcutaneously with either M55 or a control antigen (bovine serum albumin) and then challenged intravenously with S. aureus. Eighty-three percent (35/42) of the mice immunized with M55 survived compared to only 27% of the BSA immunized mice (12/45). This is a compilation of 3 separate studies.
Day -31: 100μg/mouse of a CBP Epitope (i.e. M17, M31, or M55) or BSA emulsified with Freund's Complete adjuvant (Difco Laboratories) as a control.
Day -18: 100μg/mouse of a CBP Epitope (ie. M17, M31, or M55) or BSA dissolved in sterile phosphate buffered saline (PBS)
Day -7: 100μg/mouse of a CBP Epitope (i.e. M17, M31, or M55) or BSA dissolved in PBS
Day 0: inoculate intravenously S. aureus strain Phillips (which expresses CBP) (Dose: 2.8×10^7 cfu/mouse)
Day 14: end of study; all surviving mice were euthanized.

Molecule	mice died/total
M31: recombinant S. aureus Col-binding MSCRAMM derivative, amino acids 61-343 of full length CBP (SEQ ID NO:4)	12/14
M17: recombinant S. aureus Col-binding MSCRAMM derivative, amino acids 151-297 of full length CBP (SEQ ID NO:2)	10/15

Same assay, conditions: in words

Molecule	protection against sepsis
full-length sequence: previously-identified full-length S. aureus CBP [reference compound]	does not confer protection against sepsis

Each molecule was assayed against type II Col (collagen type II) (assay: biosensor analysis, equilibrium response; protein passed over covalently immobilized type II Col). Details: not given.
Chain of type II Col (collagen type II) (P02459 182-1241): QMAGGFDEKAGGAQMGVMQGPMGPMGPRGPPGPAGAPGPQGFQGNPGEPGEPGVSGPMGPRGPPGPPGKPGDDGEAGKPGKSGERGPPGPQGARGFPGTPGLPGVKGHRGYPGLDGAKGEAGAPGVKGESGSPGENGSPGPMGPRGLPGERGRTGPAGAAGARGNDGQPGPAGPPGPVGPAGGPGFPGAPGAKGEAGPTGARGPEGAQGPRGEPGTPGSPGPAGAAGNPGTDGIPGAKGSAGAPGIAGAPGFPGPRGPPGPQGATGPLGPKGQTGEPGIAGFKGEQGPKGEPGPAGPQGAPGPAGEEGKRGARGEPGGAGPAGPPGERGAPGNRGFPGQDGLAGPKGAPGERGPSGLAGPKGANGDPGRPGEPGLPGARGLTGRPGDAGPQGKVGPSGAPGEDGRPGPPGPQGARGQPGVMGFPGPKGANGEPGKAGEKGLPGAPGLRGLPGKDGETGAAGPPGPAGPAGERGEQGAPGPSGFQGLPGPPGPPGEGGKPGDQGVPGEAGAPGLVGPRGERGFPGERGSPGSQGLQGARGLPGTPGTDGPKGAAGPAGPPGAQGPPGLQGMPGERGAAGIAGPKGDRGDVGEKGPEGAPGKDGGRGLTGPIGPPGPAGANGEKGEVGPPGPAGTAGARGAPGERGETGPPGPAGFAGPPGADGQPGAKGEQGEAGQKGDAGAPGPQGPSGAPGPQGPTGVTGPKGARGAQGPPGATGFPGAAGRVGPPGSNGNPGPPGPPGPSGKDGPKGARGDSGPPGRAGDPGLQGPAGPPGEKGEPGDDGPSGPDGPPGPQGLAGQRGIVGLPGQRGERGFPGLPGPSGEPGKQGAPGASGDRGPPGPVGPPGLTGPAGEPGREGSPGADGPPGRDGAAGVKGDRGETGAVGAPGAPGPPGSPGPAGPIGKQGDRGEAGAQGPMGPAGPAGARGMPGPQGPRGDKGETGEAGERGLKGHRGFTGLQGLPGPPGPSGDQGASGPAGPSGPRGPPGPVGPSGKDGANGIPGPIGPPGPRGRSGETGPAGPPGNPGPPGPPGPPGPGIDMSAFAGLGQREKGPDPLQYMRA

Molecule	BR (approximate binding ratio)
CBD(151-318) 223N→K (from UniProt Q53654 151-318)	10
CBD(151-318) 191F→A (from UniProt Q53654 151-318)	10
CBD(151-318) 278N→K (from UniProt Q53654 151-318)	9
CBD(151-318) 233Y→A (from UniProt Q53654 151-318)	11
CBD(151-318) 175Y→K (from UniProt Q53654 151-318)	> 20
CBD(151-318) 212Q→A (from UniProt Q53654 151-318)	10
CBD(151-318) 232N→A (from UniProt Q53654 151-318)	12
CBD(151-318) 193N→K (from UniProt Q53654 151-318)	12
CBD(151-318) 225N→K (from UniProt Q53654 151-318)	10
CBD(151-318) 189R→A (from UniProt Q53654 151-318)	> 13
CBD(151-318) 221T→K (from UniProt Q53654 151-318)	9
CBD(151-318), recombinant Col-binding domain of the S. aureus CBP (wild type) (from UniProt Q53654 151-318)	10

Each molecule was assayed against Col type II (Homo sapiens, UniProt P02458) (assay: Biosensor analysis of CBD(151-318) and single-site mutants binding to Col type II). Details: approximate binding ratio.
From the text: Mutational analysis was used to evaluate the putative binding site defined by the docking search. […] The surface area covered by the docked Col is about 1630 Å^2, which is 22% of the total solvent-accessible surface of CBD(172-318). […] Nine of these residues were mutated as well as two additional residues outside the putative binding region. The single-site lysine and alanine mutations were designed to disrupt the surface of the putative Col binding groove of wild type CBD(15 1-318). […] The MSCRAMM recognizes generic triple-helical structures (Speziale et al., 1986; Sakakibara et al., 1973; Heidemann and Roth, 1982), therefore, changes in the low-affinity dissociation constants were used to evaluate alterations in the binding of the mutant proteins (House-Pompeo et al., 1994).

Chain of Col type II (P02458 182-1241 limits assumed): as the sequence (P02458 182-1241 limits assumed) above

Molecule	BR
212Q→A (protein) ITSGNKSTNVTVHKSEAGTSSVFYYKTGDMLPEDTTHVRWFLNINNEKSYVSKDITIKDQIAGGQQLDLSTLNINVTGTHSNYYSGQSAITDFEKAFPGSKITVDNTKNTIDVTIPQGYGSYNSFSINYKTKITNEQQKEFVNNSQAWYQEHGKEEVNGKSFNHTVHN	10
191F→A (protein) ITSGNKSTNVTVHKSEAGTSSVFYYKTGDMLPEDTTHVRWALNINNEKSYVSKDITIKDQIQGGQQLDLSTLNINVTGTHSNYYSGQSAITDFEKAFPGSKITVDNTKNTIDVTIPQGYGSYNSFSINYKTKITNEQQKEFVNNSQAWYQEHGKEEVNGKSFNHTVHN	10
193N→K (protein) ITSGNKSTNVTVHKSEAGTSSVFYYKTGDMLPEDTTHVRWFLKINNEKSYVSKDITIKDQIQGGQQLDLSTLNINVTGTHSNYYSGQSAITDFEKAFPGSKITVDNTKNTIDVTIPQGYGSYNSFSINYKTKITNEQQKEFVNNSQAWYQEHGKEEVNGKSFNHTVHN	12
233Y→A (protein) ITSGNKSTNVTVHKSEAGTSSVFYYKTGDMLPEDTTHVRWFLNINNEKSYVSKDITIKDQIQGGQQLDLSTLNINVTGTHSNAYSGQSAITDFEKAFPGSKITVDNTKNTIDVTIPQGYGSYNSFSINYKTKITNEQQKEFVNNSQAWYQEHGKEEVNGKSFNHTVHN	11
232N→A (protein) ITSGNKSTNVTVHKSEAGTSSVFYYKTGDMLPEDTTHVRWFLNINNEKSYVSKDITIKDQIQGGQQLDLSTLNINVTGTHSAYYSGQSAITDFEKAFPGSKITVDNTKNTIDVTIPQGYGSYNSFSINYKTKITNEQQKEFVNNSQAWYQEHGKEEVNGKSFNHTVHN	12
278N→K (protein) ITSGNKSTNVTVHKSEAGTSSVFYYKTGDMLPEDTTHVRWFLNINNEKSYVSKDITIKDQIQGGQQLDLSTLNINVTGTHSNYYSGQSAITDFEKAFPGSKITVDNTKNTIDVTIPQGYGSYNSFSIKYKTKITNEQQKEFVNNSQAWYQEHGKEEVNGKSFNHTVHN	9
223N→K (protein) ITSGNKSTNVTVHKSEAGTSSVFYYKTGDMLPEDTTHVRWFLNINNEKSYVSKDITIKDQIQGGQQLDLSTLKINVTGTHSNYYSGQSAITDFEKAFPGSKITVDNTKNTIDVTIPQGYGSYNSFSINYKTKITNEQQKEFVNNSQAWYQEHGKEEVNGKSFNHTVHN	10
189R→A (protein) ITSGNKSTNVTVHKSEAGTSSVFYYKTGDMLPEDTTHVAWFLNINNEKSYVSKDITIKDQIQGGQQLDLSTLNINVTGTHSNYYSGQSAITDFEKAFPGSKITVDNTKNTIDVTIPQGYGSYNSFSINYKTKITNEQQKEFVNNSQAWYQEHGKEEVNGKSFNHTVHN	>13
175Y→K (protein) ITSGNKSTNVTVHKSEAGTSSVFYKKTGDMLPEDTTHVRWFLNINNEKSYVSKDITIKDQIQGGQQLDLSTLNINVTGTHSNYYSGQSAITDFEKAFPGSKITVDNTKNTIDVTIPQGYGSYNSFSINYKTKITNEQQKEFVNNSQAWYQEHGKEEVNGKSFNHTVHN	>20
225N→K (protein) ITSGNKSTNVTVHKSEAGTSSVFYYKTGDMLPEDTTHVRWFLNINNEKSYVSKDITIKDQIQGGQQLDLSTLNIKVTGTHSNYYSGQSAITDFEKAFPGSKITVDNTKNTIDVTIPQGYGSYNSFSINYKTKITNEQQKEFVNNSQAWYQEHGKEEVNGKSFNHTVHN	10
221T→K (protein) ITSGNKSTNVTVHKSEAGTSSVFYYKTGDMLPEDTTHVRWFLNINNEKSYVSKDITIKDQIQGGQQLDLSKLNINVTGTHSNYYSGQSAITDFEKAFPGSKITVDNTKNTIDVTIPQGYGSYNSFSINYKTKITNEQQKEFVNNSQAWYQEHGKEEVNGKSFNHTVHN	9

Same assay, conditions: in words

Molecule	Col-binding activity / affinity for Col compared with wild type CBD(151-318)
212Q→A (protein) ITSGNKSTNVTVHKSEAGTSSVFYYKTGDMLPEDTTHVRWFLNINNEKSYVSKDITIKDQIAGGQQLDLSTLNINVTGTHSNYYSGQSAITDFEKAFPGSKITVDNTKNTIDVTIPQGYGSYNSFSINYKTKITNEQQKEFVNNSQAWYQEHGKEEVNGKSFNHTVHN	did not differ significantly from that of wild type CBD(151-318)
232N→A (protein) ITSGNKSTNVTVHKSEAGTSSVFYYKTGDMLPEDTTHVRWFLNINNEKSYVSKDITIKDQIQGGQQLDLSTLNINVTGTHSAYYSGQSAITDFEKAFPGSKITVDNTKNTIDVTIPQGYGSYNSFSINYKTKITNEQQKEFVNNSQAWYQEHGKEEVNGKSFNHTVHN	did not differ significantly from that of wild type CBD(151-318)
225N→K (protein) ITSGNKSTNVTVHKSEAGTSSVFYYKTGDMLPEDTTHVRWFLNINNEKSYVSKDITIKDQIQGGQQLDLSTLNIKVTGTHSNYYSGQSAITDFEKAFPGSKITVDNTKNTIDVTIPQGYGSYNSFSINYKTKITNEQQKEFVNNSQAWYQEHGKEEVNGKSFNHTVHN	did not differ significantly from that of wild type CBD(151-318)
221T→K (protein) ITSGNKSTNVTVHKSEAGTSSVFYYKTGDMLPEDTTHVRWFLNINNEKSYVSKDITIKDQIQGGQQLDLSKLNINVTGTHSNYYSGQSAITDFEKAFPGSKITVDNTKNTIDVTIPQGYGSYNSFSINYKTKITNEQQKEFVNNSQAWYQEHGKEEVNGKSFNHTVHN	did not differ significantly from that of wild type CBD(151-318)
